The target in experiment [1] is T1, Ebola virus GP, Sudan strain, on VLPs (Ebola virus, Sudan strain, UniProt Q7T9D9 33-676).
T1 construct: also called Sudan NC_006432
T1 sequence: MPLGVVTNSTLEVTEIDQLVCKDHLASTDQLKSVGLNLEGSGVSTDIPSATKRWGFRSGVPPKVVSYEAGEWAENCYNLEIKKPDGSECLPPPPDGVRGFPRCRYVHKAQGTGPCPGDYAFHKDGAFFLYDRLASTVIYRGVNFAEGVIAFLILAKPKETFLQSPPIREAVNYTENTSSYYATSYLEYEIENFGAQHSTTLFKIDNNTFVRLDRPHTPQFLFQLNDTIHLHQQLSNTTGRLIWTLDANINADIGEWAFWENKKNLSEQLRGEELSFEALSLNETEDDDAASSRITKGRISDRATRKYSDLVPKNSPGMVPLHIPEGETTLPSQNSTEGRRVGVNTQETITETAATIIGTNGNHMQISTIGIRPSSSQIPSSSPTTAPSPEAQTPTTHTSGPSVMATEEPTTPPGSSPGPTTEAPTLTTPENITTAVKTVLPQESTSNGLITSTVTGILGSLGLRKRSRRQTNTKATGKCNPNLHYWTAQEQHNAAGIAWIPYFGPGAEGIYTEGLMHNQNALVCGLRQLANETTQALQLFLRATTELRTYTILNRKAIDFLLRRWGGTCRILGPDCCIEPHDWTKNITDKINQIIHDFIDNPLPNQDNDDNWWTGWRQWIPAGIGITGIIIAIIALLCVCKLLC
Put plainly: MSD, VLPs coated.

Experiment [2] addresses T2, Ebola virus GP, Cote d'Ivoire strain, on VLPs (Ebola virus, Cote d'Ivoire strain, UniProt Q66810 33-676).
T2 construct: also called Cote d'Ivoire FJ217162; Ivory Coast
T2 sequence: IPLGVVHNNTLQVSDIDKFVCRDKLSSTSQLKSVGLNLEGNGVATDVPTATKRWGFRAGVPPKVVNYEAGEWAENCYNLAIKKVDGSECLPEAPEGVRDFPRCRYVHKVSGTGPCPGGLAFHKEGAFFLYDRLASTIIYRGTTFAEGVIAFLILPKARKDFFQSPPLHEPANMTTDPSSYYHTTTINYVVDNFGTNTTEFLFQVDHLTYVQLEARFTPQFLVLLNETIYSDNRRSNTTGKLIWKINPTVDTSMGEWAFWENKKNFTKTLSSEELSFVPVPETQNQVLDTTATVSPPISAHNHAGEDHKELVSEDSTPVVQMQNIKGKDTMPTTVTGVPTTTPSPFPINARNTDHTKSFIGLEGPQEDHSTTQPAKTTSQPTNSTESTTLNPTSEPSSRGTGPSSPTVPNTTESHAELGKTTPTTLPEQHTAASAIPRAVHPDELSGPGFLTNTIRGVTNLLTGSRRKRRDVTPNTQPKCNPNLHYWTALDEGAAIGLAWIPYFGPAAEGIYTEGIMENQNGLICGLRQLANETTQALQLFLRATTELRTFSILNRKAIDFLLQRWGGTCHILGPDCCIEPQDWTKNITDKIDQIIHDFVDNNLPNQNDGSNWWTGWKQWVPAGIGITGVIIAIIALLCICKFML
Put plainly: MSD, VLPs coated.

For experiment [3], the target named is T3, Ebola virus GP with a C-terminal polyhistidine tag (Sino Biologicals, Catalog #40442-V08B1) (Ebola virus, UniProt P87666 33-650).
T3 construct: also called EbolaGP.his; Ebola virus GP.his
Put plainly: SPR 25C, mAb captured.

The target of experiment [4] is T3, Ebola virus GP with a C-terminal …. The experiment in a line: SPR 37C, mAb captured.
The target is the same in experiment [5]. Put plainly: SPR 37C, mAb captured, pH chase.
The target in experiment [6] is T4, hCNTFR.mmh (ciliary neurotrophic factor receptor.mmh) (human (printed as hCNTFR), UniProt P26992 23-342).
T4 construct: also called negative control protein; not shown: mmh (myc-myc-hexahistidine) tag
T4 sequence: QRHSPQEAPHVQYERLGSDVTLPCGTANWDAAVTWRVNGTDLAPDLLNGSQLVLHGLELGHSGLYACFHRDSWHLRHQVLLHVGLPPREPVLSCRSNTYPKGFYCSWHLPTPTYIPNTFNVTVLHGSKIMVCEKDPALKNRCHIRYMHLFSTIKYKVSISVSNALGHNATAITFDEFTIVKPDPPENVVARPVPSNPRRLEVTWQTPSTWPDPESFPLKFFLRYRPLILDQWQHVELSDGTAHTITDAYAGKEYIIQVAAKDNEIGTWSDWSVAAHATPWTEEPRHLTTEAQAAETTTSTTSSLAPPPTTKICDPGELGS
The experiment in a line: BLI, mAb captured, 25C. (In general: BLI is a label-free optical method that tracks binding on a fibre tip over time.)

In general, Kd refers to the equilibrium constant for the complex coming apart. The low end stands for tighter binding, the high end for weaker binding. For orientation: koff means a measure of how fast the partners let go of each other. What is called kon is the second-order rate constant of association. A low value points to slow association. In general, t½ refers to the time needed for the level to fall by half in the phase considered. Read a high t½ as slow loss.

B1: H1H17134P (antibody, V domains shown)
VH: QLQLQESGPGLVKPSETLSLTCTVSGGSISSSSYYWGWIRQPPGKGLEWIGSIYYDGDTYYNPSLKSRVTISVDTSKNQFSLRLSSVTAADTAVYYCARQFDYWGQGTLVTVSS
VL: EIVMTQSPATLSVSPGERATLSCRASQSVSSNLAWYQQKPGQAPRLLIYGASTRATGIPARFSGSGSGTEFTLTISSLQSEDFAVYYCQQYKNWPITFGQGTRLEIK
Consider B1, for which the binding result in experiment [1] was “no binding”. Further, the binding result in experiment [2] is given as “no binding”. In experiment [3], this molecule had a Kd of 12.3 nM, a koff of 0.000941 s⁻¹, a kon of 76500 M⁻¹ s⁻¹ and a t½ of 0.205 h. Moreover, in experiment [4], the Kd turned out to be 6.7 nM, the koff was 0.000469 s⁻¹, the kon is 69900 M⁻¹ s⁻¹ and the t½ was 0.41 h. In addition, in experiment [5], the “t½ ratio pH 7.4/pH 5.0” value is 0.6 and the “t½ ratio pH 7.4/pH 6.0” value was found to be 0.6.

B2: H2aM17356N (antibody, V domains shown)
VH: EVQLVESGGGLVQPGGSLRLSCAASGFTFSSYEMNWVRQAPGKGLEWVSYIGSSGRATYYADSVKGRFTISRDNAKNSLYLQMNSLRAEDTAVYYCARPSSIAALLRNQYHFGMDVWGQGTTVTVSS
VL: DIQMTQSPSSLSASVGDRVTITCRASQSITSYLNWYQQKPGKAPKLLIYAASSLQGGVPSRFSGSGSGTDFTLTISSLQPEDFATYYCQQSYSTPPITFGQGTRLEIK
notes: also called HCAF08C07-09
Take B2: in experiment [1], the binding result is recorded as “no binding”. In experiment [3], this molecule showed a Kd of 4.4 nM, an off-rate constant (koff) of 9.57e-05 s⁻¹, a kon of 21800 M⁻¹ s⁻¹ and a t½ of 2.01 h. In experiment [4], this molecule displayed a Kd of 34.4 nM, an off-rate (koff) of 0.00025 s⁻¹, a kon of 7260 M⁻¹ s⁻¹ and a t½ of 0.77 h. Moreover, in experiment [5], the “t½ ratio pH 7.4/pH 5.0” value turned out to be 0.9 and the “t½ ratio pH 7.4/pH 6.0” value was 0.9.

B3: H1H17360N (antibody, V domains shown)
VH: EVQLVESGGGLVQPGGSLRLSCAASGFTFSSYEMNWVRQAPGKGLEWVSYISSSGSTKYYADSVKGRFTISRDNAKNSLYLQMNSLRAEDTAVYYCARPSSIPALLRNQYHYGMDVWGQGTTVTVSS
VL: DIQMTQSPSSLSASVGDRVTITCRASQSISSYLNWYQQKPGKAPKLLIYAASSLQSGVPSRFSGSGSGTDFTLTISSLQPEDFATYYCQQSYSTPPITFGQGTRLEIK
Take B3: the values for the binding result in experiment [1], in experiment [2] and in experiment [6] were “no binding”, “no binding” and “no binding (tested: below 0.10 nm at 300 nM)”, respectively.

B4: H1H17356N (antibody, V domains shown)
VH: EVQLVESGGGLVQPGGSLRLSCAASGFTFSSYEMNWVRQAPGKGLEWVSYIGSSGRATYYADSVKGRFTISRDNAKNSLYLQMNSLRAEDTAVYYCARPSSIAALLRNQYHFGMDVWGQGTTVTVSS
VL: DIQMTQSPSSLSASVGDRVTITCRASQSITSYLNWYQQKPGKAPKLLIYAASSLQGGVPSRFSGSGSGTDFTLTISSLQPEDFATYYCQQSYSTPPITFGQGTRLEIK
As for B4, the binding result in experiment [6] is given as “no binding (tested: below 0.10 nm at 300 nM)”.

B5: H1H17151P (antibody, V domains shown)
VH: EVQLVESGGGLVQPGGSLRLSCAASGFTFSSYAMNWVRQAPGKGLEWVSVISGSGGWRNYADSVKGRITISRDNSKNTLYLQMNNLRAEDTAVYYCAKDRGATFGVVILGPPYYGMDVWGQGTTVTVSS
VL: DIQMTQSPSSLSASVRDRVTITCRASQSISTYLNWYQQKPGKAPKLLIYAASSLQSGVPSRFSGSGSGTGFTLTISSLQPEDFATYYCQQSYSIPYTFGQGTKLEIK
Turning to B5, the binding result in experiment [1] is “no binding”. The binding result in experiment [2] is “no binding”. For the same molecule, in experiment [3], the Kd amounted to 7.49 nM, the off-rate constant (koff) is 9.44e-05 s⁻¹, the kon turned out to be 12600 M⁻¹ s⁻¹ and the t½ is 2.04 h. In addition, in experiment [4], binding was characterised by a dissociation constant (Kd) of 17 nM, the koff came to 0.000383 s⁻¹, the kon is 22600 M⁻¹ s⁻¹ and the t½ turned out to be 0.503 h. Also, in experiment [5], the “t½ ratio pH 7.4/pH 5.0” value stood at 0.01 and the “t½ ratio pH 7.4/pH 6.0” value was determined as 0.03.

B6: H2aM17359N (antibody, V domains shown)
VH: EVQLVESGGGLAQPGGSLRLSCAASGFTFSSHEMNWVRQAPGKGLEWVSYISRSGRIINYADSVKGRFTISRDNAKNSLYLQMNSLRAEDTAVYYCARERGSYYDILTGSQDYGMDVWGQGTTVTVSS
VL: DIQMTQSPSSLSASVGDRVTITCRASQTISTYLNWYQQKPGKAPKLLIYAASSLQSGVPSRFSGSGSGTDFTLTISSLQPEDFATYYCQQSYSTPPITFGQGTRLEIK
notes: also called HCAF12C06-26
In the case of B6, in experiment [1], the binding result is “no binding”. Moreover, the binding result in experiment [2] is given as “no binding”. Moreover, in experiment [3], binding was characterised by a dissociation constant (Kd) of 50.9 nM, the koff was determined as 0.000195 s⁻¹, the kon came to 3820 M⁻¹ s⁻¹ and the t½ was 0.99 h. In experiment [4], this molecule came in with an equilibrium dissociation constant (Kd) of 22.9 nM, a koff of 0.000352 s⁻¹, a kon of 15400 M⁻¹ s⁻¹ and a t½ of 0.547 h. Further, in experiment [5], the “t½ ratio pH 7.4/pH 5.0” value is 0.7 and the “t½ ratio pH 7.4/pH 6.0” value is 0.8.

B7: H1H17359N (antibody, V domains shown)
VH: EVQLVESGGGLAQPGGSLRLSCAASGFTFSSHEMNWVRQAPGKGLEWVSYISRSGRIINYADSVKGRFTISRDNAKNSLYLQMNSLRAEDTAVYYCARERGSYYDILTGSQDYGMDVWGQGTTVTVSS
VL: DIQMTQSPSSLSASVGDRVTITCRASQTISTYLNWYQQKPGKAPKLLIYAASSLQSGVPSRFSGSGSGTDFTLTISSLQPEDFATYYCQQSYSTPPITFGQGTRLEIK
As for B7, in experiment [6], the binding result is recorded as “no binding (tested: below 0.10 nm at 300 nM)”.

B8: H1H17162P (antibody, V domains shown)
VH: EVQLVESGGGLVQPGGSLRLSCAASEFTFSSYAMSWVRQAPGKGLEWVSAISGSSGSTYYADSVKGRFTISRDNSKKTLYLQMNSLRVEDTAVYYCAKGGYPHSFDIWGHGTMVTVSS
VL: DIQMTQSPSSLSASVGDRVTITCRASQSISSFLNWYQQKPGKAPKLLIYAASSLQSGVPSRFSGSGSGTDFTLTISSLQPEDFATYYCQQSYSSITFGQGTRLEIK
In the case of B8, the binding result in experiment [2] is given as “no binding”. In experiment [3], this molecule displayed a Kd of at most 0.46 nM, a koff of at most 1e-05 s⁻¹, an on-rate constant (kon) of 21800 M⁻¹ s⁻¹ and a t½ of at least 19.2 h. In experiment [4], this molecule displayed a Kd of 0.288 nM, a koff of at most 1e-05 s⁻¹, a kon of 34700 M⁻¹ s⁻¹ and a t½ of at least 19.2 h. In experiment [6], the binding result is listed as “no binding (tested: below 0.10 nm at 300 nM)”. Moreover, in experiment [5], the “t½ ratio pH 7.4/pH 5.0” value was 0.3 and the “t½ ratio pH 7.4/pH 6.0” value was determined as 0.3.

B9: H1H17161P (antibody, V domains shown)
VH: EVQLVESGGGLVQPGGSLRLSCAASGFTSSSYAMNWVRQAPGKGLEWVSTISGMGGSTYYADSVKGRFTISRDNSKNTLYLQMNSLRAEDTAVYYCAKRGYPHSFDIWGQGTMVTVSS
VL: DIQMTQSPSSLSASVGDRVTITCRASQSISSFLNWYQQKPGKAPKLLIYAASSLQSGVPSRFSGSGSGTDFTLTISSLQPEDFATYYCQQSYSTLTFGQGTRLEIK
notes: also called REGN H1H17161P
On to B9, for which the binding result in experiment [2] is on record as “no binding”. In experiment [3], this molecule had a Kd of at most 0.189 nM, a koff of at most 1e-05 s⁻¹, a kon of 52900 M⁻¹ s⁻¹ and a t½ of at least 19.2 h. For the same molecule, in experiment [4], binding was put at a Kd of 0.228 nM, the koff is at most 1e-05 s⁻¹, the kon stood at 43900 M⁻¹ s⁻¹ and the t½ was at least 19.2 h. Also, in experiment [5], the “t½ ratio pH 7.4/pH 5.0” value was 0.2 and the “t½ ratio pH 7.4/pH 6.0” value was found to be 0.2.

B10: H1H17142P (antibody, V domains shown)
VH: EVQLVESGGGLVQPGGSLRLSCAASGFTFSSYAMTWVRQAPGKGLEWVSSISGSGTSTYYADSVKGRFTISRDNSKNTLYLQMNSLRAEDTALYYCSRDIYTWNFLSLIGGMDVWGQGTTVTVSS
VL: DIQMTQSPSSLSASVGDRVTITCRASQGIRIDLGWYQQKPGKAPNRLIYAASSLQGGVPSRFSGSGSGTEFTLTISSLQPEDFATYYCLQQNSYPWTFGQGTKVEIK
For B10, in experiment [1], the binding result is “no binding”. In addition, in experiment [3], the Kd worked out at 1.41 nM, the koff is 2.81e-05 s⁻¹, the kon was determined as 20000 M⁻¹ s⁻¹ and the t½ amounted to 6.84 h. In experiment [4], the Kd is 6.68 nM, the koff amounted to 0.000174 s⁻¹, the kon was 26000 M⁻¹ s⁻¹ and the t½ was determined as 1.11 h. In addition, the binding result in experiment [6] is “no binding (tested: below 0.10 nm at 300 nM)”. Besides, in experiment [5], the “t½ ratio pH 7.4/pH 5.0” value came out at 0.5 and the “t½ ratio pH 7.4/pH 6.0” value turned out to be 0.5.

The values are drawn from US20160215040A1 (Regeneron, published 2016).
